Results taken from patent US20080160617A1, “AGENT FOR INDUCING EMBRYONIC STEM CELL TO ECTODERMAL CELL, METHOD FOR OBTAINING THE SAME, AND USE OF THE SAME” (KYOWA HAKKO KOGYO CO., LTD., priority 2001, published 2008).

Legend:
embryonic stem cell = settings: cited from earlier work
ES cell EB5 [1] = assay: Mesodermal marker staining of colonies from ES cell/PA6 coculture in BMP4-added serum-free medium; type: cell-based, mouse; settings: 0.5 nmol/l BMP4-added serum-free medium, coculture with PA6 cell, 8 days
From the text: A medium was produced by adding 0.5 nmol/l of BMP4 (manufactured by R & D) to the serum-free medium described in Reference Example 1. Using the thus produced BMP4-added serum-free medium instead of the serum-free medium used in Reference Example 1, the ES cell EB5 and PA6 cell were cocultured according to the method described in Reference Example 1. That is, the PA6 cell proliferated to almost confluent on a 3 cm tissue culture dish was used as a feeder cell, the ES cell was inoculated onto the feeder cell at a density of 200 cells/dish, medium exchange was carried out with a fresh medium on the 4th, 6th and 7th days, and the cells were cultured at 37° C. for 8 days in a stream of 5% carbon dioxide in a CO2 incubator.
Eight days after coculturing, the cells were fixed according to the method described in Reference Example 1, and colonies formed as a result of coculturing of the ES cell and PA6 cell were immunologically stained with the anti-NCAM antibody, the anti-E cadherin antibody, an MF20 antibody which recognizes mesodermal cells (manufactured by Developmental Studies Hybridoma Bank) and an antibody against PDGF receptor α or Flk1 whose expression are observed in mesodermal cells (S. I. Nishikawa et al., Development, 125, 1747 (1998)).

ES cell EB5 [2] = assay: Effects of shh and BMP4 on dorso-ventral neural markers in ES cell EB5/PA6 coculture; type: cell-based, mouse; settings: shh 300 nmol/l or BMP4 0.5 nmol/l added at medium exchange on 4th, 6th, 8th days; 10 days coculture with PA6
Description: According to the method described in Reference Example 1, the ES cell EB5 was cultured for 10 days in the serum-free medium without BMP4 by using the PA6 cell as a feeder cell. That is, the PA6 cell proliferated to almost confluent on a 3 cm tissue culture dish was used as a feeder cell, the ES cell was inoculated onto the feeder cell at a density of 200 cells/dish, the medium was exchanged with a fresh serum-free medium on the 4th, 6th and 8th days, and the cells were cultured at 37° C. for 10 days in a 5% CO2 incubator.
Effects of shh were evaluated according to the similar method described above, by using a serum-free medium to which 300 nmol/l of shh (manufactured by R & D) had been added at the time of the medium exchange on the 4th, 6th and 8th days.
Effects of BMP4 were evaluated according to the similar method described above, by using a serum-free medium to which 0.5 nmol/l of BMP4 (manufactured by R & D) had been added at the time of the medium exchange on the 4th, 6th and 8th days.
Ten days after coculturing, the cells cultured by respective culturing methods were fixed according to the method described in Reference Example 1, and the colonies formed as a result of coculturing of the ES cell with PA6 cell were immunologically stained with the anti-NCAM antibody, an antibody against HNF-3β which is a marker of the basal plate existing on the most ventral side of the central nervous system primordium (neural tube) (purchased from Developmental Studies Hybridoma Bank), an antibody against Nkx2.2 as a marker existing secondary to the HNF-3β from the ventral side (purchased from Developmental Studies Hybridoma Bank), an antibody against Pax-7 as a marker of the neural tube dorsal side (purchased from Developmental Studies Hybridoma Bank), an antibody against AP-2 as a marker of the neural crest cell (purchased from Developmental Studies Hybridoma Bank), an antibody against islet 1 as a marker of motor neuron (purchased from Developmental Studies Hybridoma Bank) and an antibody against VAchT which is a marker of cholinergic neuron (manufactured by Chemicon).

ES cell EB5 [3] = assay: Coculture of ES cell EB5 with PA6 cell in BMP4-added serum-free medium, immunological staining; type: cell-based, mouse
Description: A medium was prepared by adding 0.5 nmol/l BMP4 (manufactured by R & D) to the serum-free medium described in Reference Example 1. The ES cell EB5 was cocultured with PA6 cell according to the method described in Reference Example 1, using the thus produced BMP4-added serum-free medium instead of the serum-free medium used in Reference Example 1. Eight days after culturing, immunological cell staining was carried out by using the anti-NCAM antibody, the anti-nestin antibody or an antibody against a non-neural ectoderm cell marker E cadherin (manufactured by Takara Shuzo). As a control, coculturing was carried out in the serum-free medium without BMP4.
Also, 8 days after culturing in the BMP4-added serum-free medium, the medium was changed to Glasgow MEM medium containing 10% fetal bovine serum (manufactured by GIBCO BRL), followed by culturing for 3 days. The thus cultured cells were fixed for 30 minutes by adding 4% paraformaldehyde and immunologically stained with an antibody against a skin epidermis cell marker keratin 14 (manufactured by Biomedia), and the results were compared with those in which culturing was continued for additional 3 days in the bovine serum-free medium, with the results shown in FIGS. 9G, H and I.

ES cell EB5 [4] = assay: Nerve differentiation of ES cell EB5 by solution recovered from PA6 cell with polyanion-containing Hanks' balanced salt solution (SDIA activity); type: cell-based, mouse; settings: SFRP 1 removed with anti-SFRP 1 polyclonal antibody on protein G Sepharose, 4° C., 15 hours; compared with untreated solution
Description: ES cell EB5 (H. Niwa et al., Nature Genet., 24, 372 (2000); obtained from Dr. Hitoshi Niwa at the Molecular Control Medical Science Course, Medical School, Osaka University) was used as the embryonic stem cell, and an MC3T3-G2/PA6 cell (H. Kodama et al., J. Cell Physiol., 112) 89 (1982), hereinafter referred to as “PA6 cell”) as the stromal cell, and the ES cell EB5 was cultured in accordance with the method described in Reference Example 1 and used in the test.
Cells of PA6 cultured to almost confluent state on a dish of 10 cm in diameter were washed twice with 10 ml of PBS(−) (manufactured by Invitrogen) and once with 10 ml of Hanks' balanced salt solution (manufactured by Invitrogen), 3 ml of Hanks' balanced salt solution containing from 0.001% (w/v) to 0.1% (w/v) of heparin (manufactured by Nacalai Tesque) was added thereto, the mixture was allowed to stand at 37° C. for 30 minutes, and the solution was recovered. The solution obtained was added to the PA6 on the 10 cm, dish washed in the same manner described above, the mixture was allowed to stand at 37° C. for 30 minutes in the same manner, and then the solution was recovered. This process was carried out on PA6 on the other 10 cm dish, and effect of the recovered solution ES cell was examined. […]

[5] = 0.5 nmol/l BMP4-added serum-free medium, coculture with PA6 cell, 8 days

B1: IL-11: interleukin 11 (protein, UniProt P20809 22-199, looked up)
Interleukin-11: PGPPPGPPRVSPDPRAELDSTVLLTRSLLADTRQLAAQLRDKFPADGDHNLDSLPTLAMSAGALGALQLPGVLTRLRADLLSYLRHVQWLRRAGGSSLKTLEPELGTLQARLDRLLRRLQLLMSRLALPQPPPDPPAPPLAPPSSAWGGIRAAHAILGGLHLTLDWAVRGLLLLKTRL
- SDIA-like activity to induce differentiation of embryonic stem cell into ectoderm system cells (embryonic stem cell): no SDIA-like activity

B2: GDNF: glial cell-line derived neurotrophic factor (protein, UniProt P39905 78-211, looked up)
Glial cell line-derived …: SPDKQMAVLPRRERNRQAAAANPENSRGKGRRGQRGKNRGCVLTAIHLNVTDLGLGYETKEELIFRYCSGSCDAAETTYDKILKNLSRNRRLVSDKVGQACCRPIAFDDDLSFLDDNLVYHILRKHSAKRCGCI
- SDIA-like activity to induce differentiation of embryonic stem cell into ectoderm system cells (embryonic stem cell): no SDIA-like activity

B3: BMP4: bone morphogenetic protein 4, dorsal factor of neural tube (manufactured by R & D) (protein, UniProt P12644 293-408, looked up)
Bone morphogenetic protein 4: SPKHHSQRARKKNKNCRRHSLYVDFSDVGWNDWIVAPPGYQAFYCHGDCPFPLADHLNSTNHAIVQTLVNSVNSSIPKACCVPTELSAISMLYLDEYDKVVLKNYQEMVVEGCGCR
- colonies stained with mesodermal cell markers PDGF receptor α, Flk1 and MF20, of the total colonies (ES cell EB5 [1]): ≤ 5%
- ratio of ES cell-derived colonies stained with Anti-AP-2 antibody (ES cell EB5 [2]): 24%
- ratio of ES cell-derived colonies stained with Anti-HNF-3β antibody (ES cell EB5 [2]): 9%
- ratio of ES cell-derived colonies stained with Anti-NCAM antibody (ES cell EB5 [2]): 90%
- ratio of ES cell-derived colonies stained with Anti-Nkx2.2 antibody (ES cell EB5 [2]): 19%
- ratio of ES cell-derived colonies stained with Anti-Pax-7 antibody (ES cell EB5 [2]): 72%
- ratio of ES cell-derived colonies stained with Anti-VAchT antibody (ES cell EB5 [2]): 42%
- ratio of ES cell-derived colonies stained with Anti-islet 1 antibody (ES cell EB5 [2]): 36%
- anti-NCAM antibody staining of ES cell-derived colonies (ES cell EB5 [3]; [5]): anti-NCAM antibody-negative
- anti-nestin antibody staining of ES cell-derived colonies (ES cell EB5 [3]; [5]): anti-nestin antibody-negative
- frequency of E cadherin-positive colonies (ES cell EB5 [3]; [5]): 98%
- frequency of keratin 14-positive colonies (ES cell EB5 [3]; 8 days in BMP4-added serum-free medium, then 3 days in Glasgow MEM medium containing 10% fetal bovine serum): 47%
- frequency of keratin 14-positive colonies (ES cell EB5 [3]; BMP4-added serum-free medium throughout (8 days plus additional 3 days serum-free)): 34%

B4: FGF-8: fibroblast growth factor 8 (protein, UniProt P55075 23-233, looked up)
Fibroblast growth factor 8: QEGPGRGPALGRELASLFRAGREPQGVSQQHVREQSLVTDQLSRRLIRTYQLYSRTSGKHVQVLANKRINAMAEDGDPFAKLIVETDTFGSRVRVRGAETGLYICMNKKGKLIAKSNGKGKDCVFTEIVLENNYTALQNAKYEGWYMAFTRKGRPRKGSKTRQHQREVHFMKRLPRGHHTTEQSLRFEFLNYPPFTRSLRGSQRTWAPEPR
- SDIA-like activity to induce differentiation of embryonic stem cell into ectoderm system cells (embryonic stem cell): no SDIA-like activity

B5: SFRP 1: mouse-derived secreted frizzled-related protein 1 (SEQ ID NO:7), about 38 kDa band identified in solution having SDIA activity (protein, listed as Mus musculus)
chain: MGVGRSARGRGGAASGVLLALAAALLAAGSASEYDYVSFQSDIGSYQSGRFYTKPPQCVDIPVDLRLCHNVGYKKMVLPNLLEHETMAEVKQQASSWVPLLNKNCHMGTQVFLCSLFAPVCLDRPIYPCRWLCEAVRDSCEPVMQFFGFYWPEMLKCDKFPEGDVCIAMTPPNTTEASKPQGTTVCPPCDNELKSEAIIEHLCASEFALRMKIKEVKKENGDKKIVPKKKKPLKLGPIKKKELKALVLFLKNGADCPCHQLDNLSHNFLIMGRKVKSQYLLTAIHKWDKKNKEFKNFMKRMKNHECPTFQSVFK
- SDIA activity of solution after removal of SFRP 1 (ES cell EB5 [4]): decrease of SDIA activity was observed
